The assay addresses human LDL (low-density lipoprotein) (human). As to the kind of experiment: SPR; LDL saturated with ALK1ecto. On the technique in general: SPR reads the build-up and loss of mass on a sensor chip optically.

Sequence of human LDL (low-density lipoprotein) (human) (P04114 28-4563): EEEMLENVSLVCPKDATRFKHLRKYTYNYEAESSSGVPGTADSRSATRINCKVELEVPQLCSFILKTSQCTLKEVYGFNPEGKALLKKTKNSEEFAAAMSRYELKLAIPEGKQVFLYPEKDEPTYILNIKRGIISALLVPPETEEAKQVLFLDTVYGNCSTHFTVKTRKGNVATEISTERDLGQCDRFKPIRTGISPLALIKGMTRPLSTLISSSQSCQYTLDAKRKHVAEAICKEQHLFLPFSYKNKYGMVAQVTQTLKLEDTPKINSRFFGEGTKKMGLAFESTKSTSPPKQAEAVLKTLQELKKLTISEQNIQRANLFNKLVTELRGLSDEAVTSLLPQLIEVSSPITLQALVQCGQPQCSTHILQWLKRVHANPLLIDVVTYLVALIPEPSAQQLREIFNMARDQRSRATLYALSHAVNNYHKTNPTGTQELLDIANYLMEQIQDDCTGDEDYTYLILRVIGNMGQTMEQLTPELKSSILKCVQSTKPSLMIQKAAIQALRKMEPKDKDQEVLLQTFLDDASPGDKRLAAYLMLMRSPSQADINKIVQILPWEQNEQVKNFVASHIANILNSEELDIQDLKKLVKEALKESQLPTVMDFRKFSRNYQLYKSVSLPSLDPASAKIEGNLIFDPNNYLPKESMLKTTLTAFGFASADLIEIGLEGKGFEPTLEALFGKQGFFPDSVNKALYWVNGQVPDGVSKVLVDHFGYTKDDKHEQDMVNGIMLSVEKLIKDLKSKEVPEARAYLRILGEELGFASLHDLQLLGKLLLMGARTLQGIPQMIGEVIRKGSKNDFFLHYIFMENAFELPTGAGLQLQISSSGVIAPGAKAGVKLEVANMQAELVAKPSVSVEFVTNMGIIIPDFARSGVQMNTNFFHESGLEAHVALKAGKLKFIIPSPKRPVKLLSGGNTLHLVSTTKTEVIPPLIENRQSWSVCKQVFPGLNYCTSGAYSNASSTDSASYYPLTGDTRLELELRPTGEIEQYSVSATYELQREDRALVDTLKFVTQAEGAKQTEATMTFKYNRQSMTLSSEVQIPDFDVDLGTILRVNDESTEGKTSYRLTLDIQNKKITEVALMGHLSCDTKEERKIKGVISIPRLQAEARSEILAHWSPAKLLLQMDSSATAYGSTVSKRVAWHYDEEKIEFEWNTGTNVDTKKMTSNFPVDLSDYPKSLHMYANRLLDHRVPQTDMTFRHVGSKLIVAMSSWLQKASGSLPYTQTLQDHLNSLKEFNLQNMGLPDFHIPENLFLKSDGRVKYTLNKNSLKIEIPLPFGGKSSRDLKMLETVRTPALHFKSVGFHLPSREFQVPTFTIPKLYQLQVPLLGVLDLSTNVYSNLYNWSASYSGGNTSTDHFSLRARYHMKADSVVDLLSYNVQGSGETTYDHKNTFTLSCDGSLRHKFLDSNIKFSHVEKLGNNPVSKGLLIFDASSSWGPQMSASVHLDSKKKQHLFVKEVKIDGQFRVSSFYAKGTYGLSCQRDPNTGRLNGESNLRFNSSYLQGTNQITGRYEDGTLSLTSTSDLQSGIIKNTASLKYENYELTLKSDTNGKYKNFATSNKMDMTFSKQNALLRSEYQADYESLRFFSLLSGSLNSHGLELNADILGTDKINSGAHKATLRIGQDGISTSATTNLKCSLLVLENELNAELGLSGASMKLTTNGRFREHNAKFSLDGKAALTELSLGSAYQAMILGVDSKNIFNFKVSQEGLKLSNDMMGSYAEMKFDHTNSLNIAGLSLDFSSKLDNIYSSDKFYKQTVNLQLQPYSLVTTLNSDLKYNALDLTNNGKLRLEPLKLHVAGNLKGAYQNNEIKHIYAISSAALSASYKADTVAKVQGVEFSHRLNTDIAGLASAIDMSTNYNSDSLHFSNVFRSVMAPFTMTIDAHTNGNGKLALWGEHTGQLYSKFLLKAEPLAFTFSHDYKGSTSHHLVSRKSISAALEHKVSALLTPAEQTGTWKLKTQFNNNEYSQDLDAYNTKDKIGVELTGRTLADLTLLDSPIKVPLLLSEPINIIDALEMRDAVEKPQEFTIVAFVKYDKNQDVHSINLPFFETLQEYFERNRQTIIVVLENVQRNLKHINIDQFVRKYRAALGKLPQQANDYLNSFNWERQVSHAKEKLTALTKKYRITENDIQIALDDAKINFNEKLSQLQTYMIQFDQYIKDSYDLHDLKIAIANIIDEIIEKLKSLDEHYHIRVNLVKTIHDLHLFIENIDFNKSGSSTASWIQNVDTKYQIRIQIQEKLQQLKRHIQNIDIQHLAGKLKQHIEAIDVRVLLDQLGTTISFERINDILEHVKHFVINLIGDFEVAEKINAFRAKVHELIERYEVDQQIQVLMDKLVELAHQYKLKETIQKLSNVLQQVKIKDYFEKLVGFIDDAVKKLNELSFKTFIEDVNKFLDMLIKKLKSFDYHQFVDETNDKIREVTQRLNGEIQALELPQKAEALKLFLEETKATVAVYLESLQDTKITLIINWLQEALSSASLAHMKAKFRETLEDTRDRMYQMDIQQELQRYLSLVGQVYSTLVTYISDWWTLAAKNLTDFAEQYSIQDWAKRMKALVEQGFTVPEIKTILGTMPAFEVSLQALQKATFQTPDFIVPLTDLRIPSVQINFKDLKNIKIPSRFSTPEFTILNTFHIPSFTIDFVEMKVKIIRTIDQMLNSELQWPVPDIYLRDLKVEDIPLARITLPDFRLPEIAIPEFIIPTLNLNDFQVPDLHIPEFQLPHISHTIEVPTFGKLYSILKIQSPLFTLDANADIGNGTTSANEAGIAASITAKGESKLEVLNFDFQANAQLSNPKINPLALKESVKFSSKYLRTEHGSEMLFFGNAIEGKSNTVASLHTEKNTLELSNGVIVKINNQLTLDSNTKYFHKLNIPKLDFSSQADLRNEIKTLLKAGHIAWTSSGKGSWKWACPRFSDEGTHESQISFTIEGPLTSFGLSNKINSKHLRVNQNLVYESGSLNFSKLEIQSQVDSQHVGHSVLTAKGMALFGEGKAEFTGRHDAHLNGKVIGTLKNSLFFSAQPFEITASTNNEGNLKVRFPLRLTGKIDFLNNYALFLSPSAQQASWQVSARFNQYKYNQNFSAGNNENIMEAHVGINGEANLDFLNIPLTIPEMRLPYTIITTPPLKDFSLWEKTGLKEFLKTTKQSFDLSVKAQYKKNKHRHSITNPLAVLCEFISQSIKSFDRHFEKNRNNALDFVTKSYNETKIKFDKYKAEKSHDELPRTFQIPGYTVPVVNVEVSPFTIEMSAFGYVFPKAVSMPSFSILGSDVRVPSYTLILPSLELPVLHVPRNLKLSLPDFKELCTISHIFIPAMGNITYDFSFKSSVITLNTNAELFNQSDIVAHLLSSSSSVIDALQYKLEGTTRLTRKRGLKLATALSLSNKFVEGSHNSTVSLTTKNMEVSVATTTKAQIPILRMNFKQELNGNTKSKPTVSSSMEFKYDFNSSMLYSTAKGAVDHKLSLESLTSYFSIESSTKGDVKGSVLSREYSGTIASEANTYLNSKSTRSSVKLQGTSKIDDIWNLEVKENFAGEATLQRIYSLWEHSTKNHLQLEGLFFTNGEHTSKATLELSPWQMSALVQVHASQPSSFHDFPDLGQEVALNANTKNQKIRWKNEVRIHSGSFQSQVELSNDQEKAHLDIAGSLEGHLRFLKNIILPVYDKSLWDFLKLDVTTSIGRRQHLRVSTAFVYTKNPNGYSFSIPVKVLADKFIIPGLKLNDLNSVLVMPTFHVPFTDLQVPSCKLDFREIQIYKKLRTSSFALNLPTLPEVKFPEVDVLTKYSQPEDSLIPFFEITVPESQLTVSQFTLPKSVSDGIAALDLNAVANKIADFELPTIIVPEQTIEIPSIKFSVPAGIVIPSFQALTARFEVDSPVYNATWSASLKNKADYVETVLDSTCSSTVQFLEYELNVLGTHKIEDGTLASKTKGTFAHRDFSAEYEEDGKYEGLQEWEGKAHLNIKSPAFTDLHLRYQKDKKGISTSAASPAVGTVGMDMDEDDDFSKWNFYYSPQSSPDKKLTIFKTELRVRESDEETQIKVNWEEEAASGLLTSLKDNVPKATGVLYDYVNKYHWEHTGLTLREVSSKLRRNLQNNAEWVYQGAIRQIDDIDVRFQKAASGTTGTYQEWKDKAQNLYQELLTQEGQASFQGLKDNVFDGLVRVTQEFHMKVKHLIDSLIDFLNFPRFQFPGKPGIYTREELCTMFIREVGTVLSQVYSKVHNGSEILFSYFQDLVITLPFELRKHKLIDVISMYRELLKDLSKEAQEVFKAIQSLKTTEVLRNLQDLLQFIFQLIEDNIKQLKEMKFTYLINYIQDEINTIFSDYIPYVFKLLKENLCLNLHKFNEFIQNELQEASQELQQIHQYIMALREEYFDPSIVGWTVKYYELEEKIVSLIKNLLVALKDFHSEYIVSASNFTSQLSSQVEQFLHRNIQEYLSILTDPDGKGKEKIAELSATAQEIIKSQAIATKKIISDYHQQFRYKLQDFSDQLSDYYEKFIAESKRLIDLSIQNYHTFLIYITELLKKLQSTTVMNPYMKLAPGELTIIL

B1: LDLR^ecto-(His)6 (domain or fragment)
chain: not shown
For the molecule B1, the Kd (commonly the equilibrium constant for the complex coming apart) turned out to be 2 nM.

These data come from PMC5121336 (2016).
